Results taken from US20070148164A1 (Biogen, published 2007).

B1: huCBE11 altered antibody with mutation N434L (antibody, human IgG1, kappa)
heavy: not shown
light: DIQMTQSPSSLSASVGDRVTITCKAGQDIKSYLSWYQQKPGKAPKLLIYYATRLADGVPSRFSGSGSGTDYTLTISSLQPEDFATYYCLQHGESPWTFGGGTKLEIKRTVAAPSVFIFPPSDEQLKSGTASVVCLLNNFYPREAKVQWKVDNALQSGNSQESVTEQDSKDSTYSLSSTLTLSKADYEKHKVYACEVTHQGLSSPVTKSFNRGEC
notes: Position is in EU numbering
B2: huCBE11 altered antibody with mutation Q438E (antibody, human IgG1, kappa)
heavy: not shown
light: B1 light
notes: Position is in EU numbering

Tests used:
[1] = target: T1, biotinylated human FcRn-huM4Fc fusion protein (human, biotinylated with BiotinXX sulfosuccinimidyl ester (sites not given)); assay: FRET competition, pH 5.8: competitor mAb against Eu-labelled h5C8 for biotinylated hFcRnFc; reference w.t. control antibody
T1 construct: also called bhFcRnFc; biotinylated Fc/FcRn fusion protein

[2] = target: T1, biotinylated human FcRn-huM4Fc fusion …; assay: AlphaScreen competition, pH 6.0: altered antibody against human IgG1 acceptor beads for biotinylated hFcRnFc; reference control antibody

Binder	fold lower FcRn binding affinity than the control antibody [1] [fold]	fold lower FcRn binding affinity than the control antibody [2] [fold]
B1	~4000	
B2		~1500
